Target: T1, C. difficile RecA, activated (RecA*) (Clostridium difficile 630, UniProt Q18BJ4 1-348)
T1 construct: Protein RecA (recombinase A) of Clostridium difficile strain 630; also called RecA* (CD); source: E. coli BL21 (DE3), purified (Ni-NTA, PD10 desalting)
T1 sequence (looked up): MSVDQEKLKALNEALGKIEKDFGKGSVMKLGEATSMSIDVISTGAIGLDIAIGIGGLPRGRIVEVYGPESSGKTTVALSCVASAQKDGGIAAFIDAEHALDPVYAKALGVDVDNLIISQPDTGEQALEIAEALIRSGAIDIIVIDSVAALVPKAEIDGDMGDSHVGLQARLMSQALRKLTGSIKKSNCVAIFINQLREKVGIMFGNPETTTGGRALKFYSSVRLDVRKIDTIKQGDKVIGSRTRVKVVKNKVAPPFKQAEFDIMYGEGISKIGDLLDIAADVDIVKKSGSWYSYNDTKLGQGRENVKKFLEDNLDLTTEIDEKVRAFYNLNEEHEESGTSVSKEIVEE
Assay: SPR; Biacore X, 25°C; RecA* immobilised on the chip (~2000 response units); LexA (2.6 μM) incubated with non-specific 22-bp DNA (recA operator with six nucleotides changed, 1.4-8.1 μM) passed over at 10 μl/min for 60 s; 20 mM NaH2PO4 pH 7.4, 150 mM NaCl, 2 mM MgCl2, 1 mM DTT, 1 mM ATP, 0.005% P20
Settings: both partners purified

B1: C. difficile LexA repressor (natural protein, Clostridium difficile 630, UniProt Q187P1 1-211, looked up)
chain: MYLDLTEKQVLILEFIKSQIILKGYPPAVREICTAVGLRSTSTVHSHLNKLEKLGYIRKDPTKPRAIEVLERSKVNDVSGANQEIIELPLVGQITAGEPILAQQNIEEYIPFPASLVKGSNNFVLRVKGESMINAGILDEDYVVVDKKNTALNSQIVVALINGESATVKRFFKEGNLIRLQPENDFMEPIMLNDSEVEIVGIVTGVFRVIK
notes: LexA repressor of Clostridium difficile strain 630; In the SPR with RecA* LexA was pre-incubated with 22-bp DNA; also called LexA (CD); DinR; source: E. coli BL21 (DE3), purified (Ni-NTA, PD10 desalting)
Does B1 bind?
Result: binds

Reference: PMC4234289, “The LexA regulated genes of the Clostridium difficile” (BMC Microbiology, 2014)
